Results: US20210155918A1

Columns and labels:
[1] = target: rPro^ΔSLQ, recombinant human prothrombin with amino acids Ser^478/Leu^480/Gln^481 deleted (human) (UniProt P00734)
[2] = target: rPro^ΔS5V, recombinant human prothrombin with region SVLQV deleted (human) (UniProt P00734)
[3] = target: rPro^Δ473-487, recombinant human prothrombin with region 473-487 deleted (human) (UniProt P00734)
[4] = target: rPro^ΔN10, recombinant human prothrombin missing amino acids … (human) (UniProt P00734)
[5] = target: rPro^ΔC10, recombinant human prothrombin missing amino acids … (human) (UniProt P00734)

Km of prothrombinase for rPro activation [1] [µM] | kcat/Km of prothrombinase for rPro activation (IIa generation, chromogenic substrate) [1] [M⁻¹ s⁻¹] | Rate of Pro molecules cleavage by prothrombinase (nM consumed · s^-1 · fXa^-1) [2] | Rate of Pro molecules cleavage by prothrombinase (nM consumed · s^-1 · fXa^-1) [3] | Rate of Pro molecules cleavage by prothrombinase (nM consumed · s^-1 · fXa^-1) [4] | Rate of Pro molecules cleavage by membrane-bound fXa alone (nM consumed · s^-1 · fXa^-1) [5] | Rate of Pro molecules cleavage by membrane-bound fXa alone (nM consumed · s^-1 · fXa^-1) [2] | Rate of Pro molecules cleavage by membrane-bound fXa alone (nM consumed · s^-1 · fXa^-1) [3] | Rate of Pro molecules cleavage by membrane-bound fXa alone (nM consumed · s^-1 · fXa^-1) [4] | Substance
3.2 | 670000 | 1.8 | 1 | 1.5 | – | – | – | – | prothrombinase (from UniProt P00742) (enzyme)
– | – | – | – | – | 0.35 | 0.8 | 0.53 | 0.7 | Human fXa (from UniProt P00742) (enzyme)
